Experimental findings from publication PMC9638898 are described below.

The test system of this data set is en-10C-R4 (engrailed homeodomain-ligase 10C-tetra-arginine) (artificial fusion). The data set can be described thus: fluorescence anisotropy. Conditions: 20 mM HEPES pH 7.5, 150 mM NaCl, 100 uM 2-mercaptoethanol, 120 uM ZnCl2, 100 ug/ml BSA, 24 C, 90 min. Background: In fluorescence polarisation assays a small probe gives low polarisation when free and higher when bound to something large.

The Kd is the free concentration of one partner at which half of the binding sites on the other are occupied at equilibrium, for simple one-to-one binding. Low readings indicate tighter binding, high ones weaker binding. For “GUUCAGAGUUCUACAGUCACUAACGUUCGGGGAACCCAGGUGUUGGUCUUUGACGUAGAGUAUAAGA / TGGGTTCCCCGAACGT [RNA/DNA duplex (ligated product RNA + FAM-DNA splint #2)]”, the Kd was found to be 460 nM.
